Assay results published in PMC6300008.

Assay: LDH release into supernatant, 24 h
Details: glycan lost; control: WT-transfected BV2 cells plus LPS, co-cultured with neurons

B1: CD200R1 (CD200 receptor 1): N44Q (protein)
parent chain: MFCFWRTSALAVLLIWGVFVAGSSCTDKNQTTQNNSSSPLTQVNTTVSVQIGTKALLCCFSIPLTKAVLITWIIKLRGLPSCTIAYKVDTKTNETSCLGRNITWASTPDHSPELQISAVTLQHEGTYTCETVTPEGNFEKNYDLQVLVPPEVTYFPEKNRSAVCEAMAGKPAAQISWSPDGDCVTTSESHSNGTVTVRSTCHWEQNNVSDVSCIVSHLTGNQSLSIELSRGGNQSLRPYIPYIIPSIIILIIIGCICLLKISGFRKCKLPKLEATSAIEEDEMQPYASYTEKSNPLYDTVTKVEAFPVSQGEVNGTDCLTLSAIGI
- other: neuronal death in co-culture: increases
